# Test: yeast display, Sf9 membrane polyspecificity reagent, FACS + sequencing; frameworks hold sequencing errors
# Outline: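 Using colony PCR, genes from sorted yeast display clones were amplified, then sequenced on MiSeq at 2 × 250 and filtered by CDR length. The clones had been stained with 10% biotinylated, detergent-solubilized Sf9 membrane reagent for 1 hour at 4 °C and sorted by FACS into low and high (top ~1%) gates on anti-HA and streptavidin fluorescence. Polyreactivity labels come from the gate of origin.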
row,Sequence,polyreactivity (PSR sort gate)
1,QVQLVESGGGLVQAGGSLRLSCAASGSIFAHYAMGWYRQAPGKERELVAAISKNAGSTYYADSVKGRFTISRDNAKNTVYLQMNSLKPEDTAVYYCATGYQKPYSSDYWGQGTQVTVSS,high polyreactivity
2,QVQLVESGGGLVQAGGSLRLSCAASGRTFYYYTRGWYRQAPGKERELVAAISRRGGRTYYADSVKGRFTISRDNAKNTVYLQMNSLKPEDTAVYNCAKETPHCPGLGGYDYWGQGTQVTVSS,high polyreactivity
3,QVQLVESGGGLVQAGGSLRLSCAASGFIFGRYAMGWYRQAPGKERELVAAISRSGGSTHYADSVKGRFTISRDNAKNTVYLQMISLKPEDTAVYYCAAVWPFDRSRMDYWGQGTQVTVSS,high polyreactivity
4,QVQLVESGGGLVQAGGSLRLSCAASGINFGYYAMGWYRQAPGKERELVAAISRRGGSTYYADSVKGRFTISRDNAKNTVYLQMNSLKPEDTAVYYCYKRRAAGGFPYVYWGQGTQVTVSS,high polyreactivity
5,QVQLVESGGGLVQAGGSLRLSCAASGIIFGRYAMGWYRQAPGKERELVAVINWSGDSTYYADSVKGRFTISRDNAKNTVYLQMNSLKPEDTAVYYCAALNYKGRYRQYYWGQGTQVTVSS,high polyreactivity
6,QVQLVESGGGLVQAGGSLRLSCAASGFTFRRNGRGWYRPAPGKERELVAAIRGSDGSTYYADSVKGRFTISRDTAKNTVYLLMNSLKPADTAVYYCIVVGKGLYRKMGYWGQGTQVTVSS,high polyreactivity
7,QVQLVESGGGLVQAGGSLRLSCAASGYTFPYYTMGWYRQAPGKERELVATITRRGDSTYYADSVKGRFTLSRDNAKNTVYLQMNSLKPEDTAVYYCNTASYGRHQFRKSSKMDYWGQGTQVTVSS,high polyreactivity
8,QVQLVESGGGLVQAGGSLRLSCAASGFTFYFYAMGWYRQAPGKERELVAAISRGGSTTYADSVKGRFTISRDNAKNTVYLQMNSLKPEDTAVYYCAKDRRRWYYTRDYWGQGTQVTVSS,low polyreactivity
9,QVQLVESGAGLVQAGGSLRLCCAASGSTFTKNAMGLYRQAPGKERELVAAISWRDGSTYYADSVKGRFTISRDNAKNTVYLQMNSLKPEDTAVYYCNAVRRSFGKYPGLLDYDYWGQGTQVTVSS,high polyreactivity
10,QVQLVESGGGLVQAGGSLRLSCAASGGIFTLNGMGWYRQAPGKERELVAVITSSGGSTYYADSVKGRFTISRDNAKNTVYLQMNSLKPEDTAVYYCAAQLVRYVGYYRFDYWGQGTQVTVSS,low polyreactivity
11,QVHLVESGGGLVQAGGSLRLSCAASGFTFPEYYMGWYRQAPGKESELVAAINYSDGRTFYADSVKGRFTISRDNAKNSVYLQMNSLKPEDTAVYYCASDLSYDVWFFGPDYDYSGQGTQVTVSS,low polyreactivity
12,QVQLVESGGGLVQAGGSLRLSCAASGIIFRANAMGWYRQAPGKERELVAAISGRGSSTTYADSVKGRFTISRDNAKNTVYLQMNSLKPEDTAVYYCAADTWYPGYYAYDYWGQGTQVTVSS,high polyreactivity
13,QVQLVESGGGLVQAGGSLRLSCAASGRIFIYNAMGWYRQAPGKEREFVAAISSSGGSTYYADSVKGRFTISRDNAKNTVYLQMNSLKPEDTAVYYCAAGGWPYSGGWFFQPNYDYWGQGTQVTVSS,low polyreactivity
14,QVQLAESGGGLVQAGGSLRLSCAASGGTIGVNAMGWYRQAPGKERELVARISRIGASTHYADSVKGRFTISRDNAKNTVYLMMNSLKPEDTAVYYCAKSNGTPGNFGYWGQGTQVTVSS,low polyreactivity
15,QVQLVESGGGLVQAGGSLRLSCAASGLIFNLYAMGWYRQAPGKEREFVATITGIGGSTYYADSVKGRFTISRDIAKNTVYLQMNSLKPDDTAVYYCAADAWFVPYNYWGQGTQVTVSS,low polyreactivity
16,QVQLVESGGGLVQAGGSLRLSCAASGSTFYRNAMGWYRQAPGKERELVAAIRKTGGSTHYADSVKGRFTISRDNAKNTVYLQMNSLKPEDTAVYYCNATYIYGWYNYWGQGTQVTVSS,low polyreactivity
17,QVQLVESGGGLVQAGGSLRLSCAASGSTCVYYPMGWYRQAPGKERELVAAIRGRDGNTYYADSVKGRFTISRDNAQNTVYLQMNSLKPEDSAVYSSAATRRNQLYGVAYRYDYWGQGTQVTVSS,high polyreactivity
18,QVQLVDSGGALVQAGGSLSLSCAASGGKYDSYAMGWYRQAPGKERELVASISRSGSTNYADSVKGRFTISRDNAMNTVYLQMNSLNPEDTAVYYCAASVRGIRYDYWGQGTQVTVSS,low polyreactivity
19,QVQLVESGGGLVQAGGSLRLSCAASGSTFEGNVMGWDRQATGKERELVATITGSGGRTYADSVKGRFTISRDNAKNTVYLQMNSLKPEDTAVYYCYAVSTASDEYDYWGQGTQVTVSS,low polyreactivity
20,QVQLVESGGGLVQAGGSLRLSCAASGRTFVYYAMGWYRQAPGKEREFVAAISRSGGRTSYADSVKGRFTISRDNAKNTVYLQMNSLKPEDTAVYYCAAEKRTQPTSREYYWGQGTQVTVSS,high polyreactivity
21,QFQLVESGGGLVQSGGSLRLSCAASGSTFGYYTMGWYRPAPGTERELVAAITWSGGSTYYADSVKGRFTISRDNAKNTVYLPMNSLKPEDTAVYYCAADDYWTPFGYWGQGTQVTVSS,low polyreactivity

row,Sequence,polyreactivity (PSR sort gate)
1,QVQLVESGGGLVQAGGSLRLSCAASGSTFYVYDMGCYRQAPGKEREWVAAISSGAGSTYYADSVKGRFTISRDNAKNTVYLQMNSLKRKIPRSITALLFTVNGGGSRSHDYWAQGTQVTVSS,low polyreactivity
2,QVQLVESGGGLVQAGGSLRLSCAASGGIFYPYAMGWYRQAPGKERELVASIDVSDGSTYYADSVKGRFTISRDNAKNTVYLQMNSLKPEDTAVYYCAADRYSKAIDFEGDYWGQGTQVTVSS,low polyreactivity
3,QVHLVESGGGLVQAGGSLRLSCAPSGSIFRNYAMGWYRQAPGKESELVATISGRGGRTYYEDSVKGRFTISRDNAKNTVYLQMNSLKPEDTAVYYCAARGTLGKYSTASVYSGQGTQVTVSS,high polyreactivity
4,QVQLVESGGGLVQAGGSLRLSCAASGGISYRYAMGWYRQAPGKERELVARISRGTGTHYADSVKGRFTISRDNAKNTVYLQMNSLTPEDTAVYYCAAESYRGYYLSLNYWGQGTQVTVSS,high polyreactivity
5,QVQLVESGGGLVQAGGSLRLSCAASVYIFVRNALGWYRQAPGKERELVAAISGSGGSTYYADSVKGRFTISRDNAKNTVSLQMNSLIPEDTAVDYCAADYATVTWRGIAYDYWGQGTQVTVSS,low polyreactivity
6,QGQLEESGGGLVQAGCSLRRSCAASGNIFLIYAMGWSRQAPGKEGELVAAISFSDDTTDYADSVKGRFTSSRDNAKNTAYIQMNSLKPEDTAVYYCAAELYYDVANTQYDYWGQGTQVTVSS,high polyreactivity
7,QVQLVESGGCLVQAGGSLRLSSAASGFTFDKYAMGWYRQAPGKEMELVAAISGSGGTTYYADSVKGRFTISRDNAKNTVYLQMNSLKPEDTAVYYCATRLYSIYSYGYWGQGTQVTVSS,high polyreactivity
8,QVQLVESVGGLVQAGGSLRLSCAASVYMFYDYDMGWYRQAPGKAREFVARITSDGSTYADSVKGRFTISRDNAKNTVYLQMNMLKPEDTAVYYCNRKSRSYFWSVQDSFKYDYWGQGTQVTVSS,low polyreactivity
9,QVHLVESGGGLVQAGGSLRLSCAAYGIIFNSNAMGWYRQAPGKERELVAAISVSGGSTYYADSVKGRFTISRDNAKNTVYLQMNSLKPEDTAVYFCAARTGRGDRTRRYYYWGQGTKVTVSS,high polyreactivity
10,QVQLVESGGGLVQAGGSLRLSSAASGSIFLGNAMGWYRQAPGKERELVAAISSITGRTYYADSVKGRFTISRDNAKNTVYLQMNSLKPEDTAVYYCAATSLIYGYRTYDYWGQGTQVTVSS,high polyreactivity
11,QVQIVESGGGLVQAGGSLRLSCAASGSIFFAYAMGSYRQAPGKERELVAAITGSGGSTYADSVKGRFTISRDNAKNTVYVQMNSLKPEDTAVYYCAKDHYYYPYKRLFVGHEYWGQGTQVTVSS,low polyreactivity
12,QVQLVESGGGLVQAGGSLRLSCAASGRTFYSYAMGWYRQAPGKERELVAAISSSSGRTYYADSVKGRFTISRDNAKNTVYLQMNSLKPEDTAVYYCNRAGGYRTTFYSWGQGTQVTVSS,high polyreactivity
13,QVQLVESGGGLVQAGGSLRLSCAASGRTFWYYTMGWYRQAPGKERELVASITYRGGSTYYADSVKGRFTISRDNAKNTVYLQMNSLKPEDTAVYFCNARYKRYSYDYWGHGTQVTVSS,high polyreactivity
14,QVQLVESGGGLVQAGGSLRLSCAASGFTFPVYAMGWYRQAPGKEREFVAAITKSGGGTYYADSVKGRFTISRDNAKNTVYLQMNSLKPVDTAVYYCAKASRRFLTLGYDYWGQGTQVTVSS,high polyreactivity
15,QVQLVESGGGLVQAGGSHRLSCAASGRIIHGYAMGWYRQAPGKERELVARISFSGGRTYYADSVKGRFTISRDNAKNTVYLQKNSLIPEDTAVYYCNVRVWSYYYPGRDSDYWGQGTQVTVSS,high polyreactivity
16,QVQLVESGGGLVQAGGSLRLSCAASGLIFSTYDMGWYRQAPGKDRELVAAISTGGSTYCADSVKGRFTMSRDNAKYTVYLQMNSLKPEDTAVYYCAAGYTYHSWPLYYWDYNYWGQGTQVTVSS,low polyreactivity
17,QVQLVESGGGLVQAGGSLRLSCAASGSTSVTNAMGWYRQAPGKEREFVATINYSGTSTYYADSVKGRFTISRDNAKNTVYLQMNSLKPEDTAVYYCNAHDFGFYRFSLPGYDYWGQGTQVTVSS,low polyreactivity
18,QVQLVESGGGLVQAGGSLRLSCAASGIYPYYAMGWYRQAPGKERELVATISSADGPKYADSVKGRFTISRDNAKNTVYLQMNSLKPEDTAVYYCNAYVWSWHDYWGQGTQVTVSS,low polyreactivity
19,QVQLVESGGGLVQAGGSLRLSCAASGITYEGYAMGWNRKAPGKERELVAAIRSSGTSTYYADSVKGRFTISRDNAKNSVYLQMNSLKPEDTAVYYCNRARSSSRYDYWGQGTQVTVSS,low polyreactivity
20,QDQLVDSGGGLVQAGGSLRLSCAASGFTFFRKAMGWYREAPGKERQLVAAITRAGSTYYADSVKGRFTISRDNAKNTVYLQMNSLKAEDTEVYYCFDLSNRYAVRYDYWGQGTQVTVSS,high polyreactivity
